Our source for the MFI values is patent publication US20180346571A1.

For experiment [1], the target named is cynomolgus PD-L1-CD4TM-GFP expressed on HEK-293 cells (cynomolgus) (UniProt G7PSE7). Nature of the experiment: FACS on HEK-293 cells transfected with cyno PD-L1-GFP, secondary antibody alone (negative control).
Experiment [2] has as its target mouse PD-L1-CD4TM-GFP expressed on HEK-293 cells (mouse) (UniProt Q9EP73). Nature of the experiment: FACS on HEK-293 cells transfected with mPD-L1-GFP, secondary antibody alone (negative control).
Experiment [3] deals with human PD-L1 ECD-CD4TM-GFP expressed on HEK-293 / HEK-293T cells (human) (UniProt Q9NZQ7). Nature of the experiment: FACS on HEK-293 cells transfected with hPD-L1-GFP, secondary antibody alone (negative control).
The target is the same in experiment [4]. Nature of the experiment: FACS on HEK-293T cells expressing hPD-L1-GFP, control panel headed anti-mFc-PE in the row 'No antibody' (taken as the control without PD-1-Fc of paragraph 289).

UniProt Q9NZQ7, sequence (Q9NZQ7 19-238): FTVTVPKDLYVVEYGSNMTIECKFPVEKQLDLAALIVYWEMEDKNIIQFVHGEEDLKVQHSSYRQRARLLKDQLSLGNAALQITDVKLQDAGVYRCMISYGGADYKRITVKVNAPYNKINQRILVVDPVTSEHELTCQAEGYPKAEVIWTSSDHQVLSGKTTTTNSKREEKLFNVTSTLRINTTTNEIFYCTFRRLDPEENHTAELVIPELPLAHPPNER
UniProt Q9EP73, sequence (Q9EP73 19-239): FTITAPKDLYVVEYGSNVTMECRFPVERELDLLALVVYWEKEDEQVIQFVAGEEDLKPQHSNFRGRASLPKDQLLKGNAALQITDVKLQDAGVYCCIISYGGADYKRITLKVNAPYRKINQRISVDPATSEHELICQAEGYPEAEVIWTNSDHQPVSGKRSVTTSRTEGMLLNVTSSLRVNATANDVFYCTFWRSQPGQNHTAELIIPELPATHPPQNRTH
UniProt G7PSE7, sequence (G7PSE7 entry or part of it limits assumed): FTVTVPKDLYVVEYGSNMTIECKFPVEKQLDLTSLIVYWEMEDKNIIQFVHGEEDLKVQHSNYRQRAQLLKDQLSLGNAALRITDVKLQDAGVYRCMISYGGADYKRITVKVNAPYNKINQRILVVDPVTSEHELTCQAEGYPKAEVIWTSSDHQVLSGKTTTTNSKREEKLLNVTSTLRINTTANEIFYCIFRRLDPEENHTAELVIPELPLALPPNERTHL

Regarding Only anti-hFc Ab (antibody), the MFI in experiment [1], in experiment [2] and in experiment [3] was 3 each time.

In experiment [3], Only anti-mFc Ab (antibody) came in with an MFI of 6.

In experiment [4], anti-mFc-PE (antibody) showed an MFI of 10.
